Measurements published in doi:10.1101/2022.01.14.473406.
Like-named read-outs stand apart in the source and are kept apart here. Blank lines part the entries; values can stand above or below the molecule they belong to.

Legend:
[1] = target: AP-Endonuclease 1 (APE1) (human) (UniProt P27695); experiment: SPR
[2] = target: T1, DNA ligase I EE/AA (C-terminal, delta261) (Homo sapiens, UniProt P18858 262-919, E346A;E592A); experiment: X-ray crystallography
[3] = target: T1, DNA ligase I EE/AA (C-terminal, …); experiment: X-ray crystallography; remark: listed apart in the source

T1 sequence (P18858 262-919 E346A/E592A): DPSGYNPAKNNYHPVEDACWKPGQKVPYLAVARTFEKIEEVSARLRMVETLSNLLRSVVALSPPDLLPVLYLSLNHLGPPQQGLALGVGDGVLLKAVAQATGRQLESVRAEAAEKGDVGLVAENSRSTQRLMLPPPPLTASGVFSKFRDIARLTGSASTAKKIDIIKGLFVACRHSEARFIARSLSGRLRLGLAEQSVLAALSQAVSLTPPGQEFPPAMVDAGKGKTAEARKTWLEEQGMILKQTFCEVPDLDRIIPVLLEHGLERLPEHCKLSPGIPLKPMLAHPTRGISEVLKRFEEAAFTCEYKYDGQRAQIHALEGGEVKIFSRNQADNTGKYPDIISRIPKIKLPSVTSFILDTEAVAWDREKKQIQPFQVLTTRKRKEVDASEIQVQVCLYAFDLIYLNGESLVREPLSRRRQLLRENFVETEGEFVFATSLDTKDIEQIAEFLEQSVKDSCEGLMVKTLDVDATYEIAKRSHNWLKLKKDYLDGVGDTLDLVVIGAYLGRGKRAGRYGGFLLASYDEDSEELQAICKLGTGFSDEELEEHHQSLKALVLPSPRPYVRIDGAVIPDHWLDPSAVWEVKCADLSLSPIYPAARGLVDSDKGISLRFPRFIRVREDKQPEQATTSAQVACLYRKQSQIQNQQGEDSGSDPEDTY
Sequence of AP-Endonuclease 1 (APE1) (human) (P27695 whole entry): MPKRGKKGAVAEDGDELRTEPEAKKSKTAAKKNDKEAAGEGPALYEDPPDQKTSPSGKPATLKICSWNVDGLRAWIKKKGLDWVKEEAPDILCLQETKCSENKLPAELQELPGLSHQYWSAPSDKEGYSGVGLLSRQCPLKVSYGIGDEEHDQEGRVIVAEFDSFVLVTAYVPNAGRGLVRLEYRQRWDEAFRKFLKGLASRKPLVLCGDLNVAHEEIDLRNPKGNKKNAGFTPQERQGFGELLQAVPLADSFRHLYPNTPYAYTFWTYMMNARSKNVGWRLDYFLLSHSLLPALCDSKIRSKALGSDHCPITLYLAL

Kd [1]: 117 nM
Molecule: DNA ligase I (LIG1) (from UniProt P18858 1-919) (enzyme)

B1: nick DNA 3'-dA:T (dsDNA)
DNA 1: GCTGATGCGTA
DNA 2: GTCGGAC
DNA 3: GTCCGACTACGCATCAGC
modifications: 5'-phosphate on downstream strand; 5'-adenylated (DNA-AMP) in crystal
binding result [2]: binds

B2: nick DNA 3'-dA:C (dsDNA)
DNA 1: GCTGATGCGTA
DNA 2: GTCGGAC
DNA 3: GTCCGACCACGCATCAGC
modifications: 5'-phosphate on downstream strand
binding result [3]: binds

B3: nick DNA 3'-dG:T (dsDNA)
DNA 1: GCTGATGCGTG
DNA 2: GTCGGAC
DNA 3: GTCCGACTACGCATCAGC
modifications: 5'-phosphate on downstream strand; 5'-adenylated (DNA-AMP) in crystal
binding result [2]: binds
